Test results published in patent US20030049246A1 (published 2003).

Target: T1, Gli3C′ΔXhoI (Myc-tagged C-terminal deleted XhoI Gli 3 truncate) (human, UniProt P10071 1-547)
T1 construct: also called Gli3C'XhoI
T1 sequence: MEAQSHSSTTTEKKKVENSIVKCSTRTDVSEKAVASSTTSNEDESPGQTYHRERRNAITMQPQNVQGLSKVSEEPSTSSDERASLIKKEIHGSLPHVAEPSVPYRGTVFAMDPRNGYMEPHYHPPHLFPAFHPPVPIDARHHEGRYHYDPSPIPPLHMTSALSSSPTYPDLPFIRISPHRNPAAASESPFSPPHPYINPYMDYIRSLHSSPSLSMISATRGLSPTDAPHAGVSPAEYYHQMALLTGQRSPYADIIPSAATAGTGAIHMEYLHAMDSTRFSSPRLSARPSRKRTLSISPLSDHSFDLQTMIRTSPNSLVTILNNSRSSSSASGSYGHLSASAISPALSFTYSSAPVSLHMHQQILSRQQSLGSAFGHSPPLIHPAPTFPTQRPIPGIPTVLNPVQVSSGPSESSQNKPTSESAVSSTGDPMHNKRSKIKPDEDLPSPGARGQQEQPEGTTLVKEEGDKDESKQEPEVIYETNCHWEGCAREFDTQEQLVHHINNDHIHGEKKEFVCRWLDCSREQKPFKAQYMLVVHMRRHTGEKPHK
Experiment: co-immunoprecipitation (anti-Flag IP, anti-Myc blot), transfected cells
Method: Immunoprecipitation and immunoblotting: The assay was performed as previously described ( Liu et al, 1997, Genes Dev. 11:3157-3167). RIB/L17 or COS1 cells were cotransfected with Myc-tagged full-length or deletion derivatives of Gli3 or Gli1 along with a Flag-tagged Smad construct by the DEAE-dextran method. BMP or TGFP stimulation was by cotransfection of an activated BMP or TGFβ receptor and treatment with BMP (2 nM) or TGFβ (500 pM) for 1 hour. Cells were lysed in TNE buffer (10 mM Tris (pH7.8), 150 mM NaCl, 1 mM EDTA, 1% NP40) in the presence of protease inhibitors. Immunoprecipitation was performed by incubation with the M2 anti-Flag antibody (Eastman Kodak) for 1 hour. Immunoprecipitates were separated in an 8% SDS-PAGE and transferred to a PVDF membrane. Inmmunoblotting was carried out by using the 9E10 anti-Myc antibody (ascites), followed by incubation with HRP-conjugated goat anti-mouse antibodies and detected by chemiluminescence (Amersham).

binding result: no binding
B1: Flag-Smad1 (other, UniProt Q15797 1-465, looked up)
chain: MNVTSLFSFTSPAVKRLLGWKQGDEEEKWAEKAVDALVKKLKKKKGAMEELEKALSCPGQPSNCVTIPRSLDGRLQVSHRKGLPHVIYCRVWRWPDLQSHHELKPLECCEFPFGSKQKEVCINPYHYKRVESPVLPPVLVPRHSEYNPQHSLLAQFRNLGQNEPHMPLNATFPDSFQQPNSHPFPHSPNSSYPNSPGSSSSTYPHSPTSSDPGSPFQMPADTPPPAYLPPEDPMTQDGSQPMDTNMMAPPLPSEINRGDVQAVAYEEPKHWCSIVYYELNNRVGEAFHASSTSVLVDGFTDPSNNKNRFCLGLLSNVNRNSTIENTRRHIGKGVHLYYVGGEVYAECLSDSSIFVQSRNCNYHHGFHPTTVCKIPSGCSLKIFNNQEFAQLLAQSVNHGFETVYELTKMCTIRMSFVKGWGAEYHRQDVTSTPCWIEIHLHGPLQWLDKVLTQMGSPHNPISSVS
notes: not shown: Flag tag
